Measurements reported in doi:10.1101/2025.08.13.670075.

Target: proteasome with HTBH-tagged 20S subunit PSMB2 (human (expressed in HEK293) | human (endogenous in HEK293T)) (UniProt P49721)
Test: affinity purification with mass spectrometry

Sequence of UniProt P49721 (P49721 whole entry, looked up, tested part not stated): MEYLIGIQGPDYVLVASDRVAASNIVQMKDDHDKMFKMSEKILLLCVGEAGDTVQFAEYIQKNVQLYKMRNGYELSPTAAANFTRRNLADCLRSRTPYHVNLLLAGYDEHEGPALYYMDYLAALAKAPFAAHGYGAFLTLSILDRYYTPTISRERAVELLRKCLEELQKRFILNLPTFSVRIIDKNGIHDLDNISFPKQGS

B1: USP15 (endogenous, HEK293T or HeLa cells) (enzyme)
chain: MAEGGAADLDTQRSDIATLLKTSLRKGDTWYLVDSRWFKQWKKYVGFDSWDKYQMGDQNVYPGPIDNSGLLKDGDAQSLKEHLIDELDYILLPTEGWNKLVSWYTLMEGQEPIARKVVEQGMFVKHCKVEVYLTELKLCENGNMNNVVTRRFSKADTIDTIEKEIRKIFSIPDEKETRLWNKYMSNTFEPLNKPDSTIQDAGLYQGQVLVIEQKNEDGTWPRGPSTPKSPGASNFSTLPKISPSSLSNNYNNMNNRNVKNSNYCLPSYTAYKNYDYSEPGRNNEQPGLCGLSNLGNTCFMNSAIQCLSNTPPLTEYFLNDKYQEELNFDNPLGMRGEIAKSYAELIKQMWSGKFSYVTPRAFKTQVGRFAPQFSGYQQQDCQELLAFLLDGLHEDLNRIRKKPYIQLKDADGRPDKVVAEEAWENHLKRNDSIIVDIFHGLFKSTLVCPECAKISVTFDPFCYLTLPLPMKKERTLEVYLVRMDPLTKPMQYKVVVPKIGNILDLCTALSALSGIPADKMIVTDIYNHRFHRIFAMDENLSSIMERDDIYVFEININRTEDTEHVIIPVCLREKFRHSSYTHHTGSSLFGQPFLMAVPRNNTEDKLYNLLLLRMCRYVKISTETEETEGSLHCCKDQNINGNGPNGIHEEGSPSEMETDEPDDESSQDQELPSENENSQSEDSVGGDNDSENGLCTEDTCKGQLTGHKKRLFTFQFNNLGNTDINYIKDDTRHIRFDDRQLRLDERSFLALDWDPDLKKRYFDENAAEDFEKHESVEYKPPKKPFVKLKDCIELFTTKEKLGAEDPWYCPNCKEHQQATKKLDLWSLPPVLVVHLKRFSYSRYMRDKLDTLVDFPINDLDMSEFLINPNAGPCRYNLIAVSNHYGGMGGGHYTAFAKNKDDGKWYYFDDSSVSTASEDQIVSKAAYVLFYQRQDTFSGTGFFPLDRETKGASAATGIPLESDEDSNDNDNDIENENCMHTN
fold change of USP15 content on proteasomes, MG132-treated over untreated cells: > 4 fold
